Bridge positions count the residues as written; N and C are the ends. Square brackets hold non-standard residues; d marks the D form.
Biological target: T1, biotinylated K-Ras(G12D)·GppNHp (His-Avi-TEV-KRAS (G12D)) (human, biotin on the Avi tag (co-expressed BirA))
T1 construct: Loaded with GppNHp; the protocol for the biotinylated proteins tells of no tag cleavage; Used in the TR-FRET assay
Assay: TR-FRET Ras-Raf interaction assay: biotinylated K-Ras(G12D)·GppNHp with GST-Raf1-RBD, peptide titrated (competition)

| Binder | binding result |
| --- | --- |
| {CH2CO}-[dY]IIVTEKFIWVHHCG-NH2 (thioether N-14, Chemically synthesized linker-free thioether macrocycle; in the mRNA display selection the same peptide stood as a peptide-mRNA/cDNA fusion) [KD1] | binds |
| {CH2CO}-[dY]NYPYRPLELGWYCG-NH2 (thioether N-14, Chemically synthesized linker-free thioether macrocycle; in the mRNA display selection the same peptide stood as a peptide-mRNA/cDNA fusion) [KD17] | binds |
